Source: the supplement of paper PMC10126150
± gives the standard deviation of the averaged measurements.

Tested on: ATP
Experiment: switch fluorescence ratio, 500 uM ATP over buffer (Cy3 cluster intensity, sum of 5 cycles each) (fold (ratio)); higher = stronger signal-on switching upon ATP binding; sequences stand for … in TCGTCGGCAGCGTCAGATGTGTATAAGAGACAGTTTTTTTTTTTTTTTTTTTTTTTTT…TC
Details: aptamer strand: ATP DNA aptamer (quencher-CACCTGGGGGAGTATTGCGGAGGAAGG + anchor), 100 nM annealed; ATP concentration: 500 uM
In short: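 Imaging in selection buffer was followed by imaging after 15 min with 500 uM ATP at 22 °C, for Cy3-labelled switching-strand clusters annealed to 100 nM quencher-labelled ATP aptamer on a modified Illumina MiSeq flow-cell. Five of these buffer/ATP cycles ran, separated by NaOH stripping and re-annealing. The fluorescence ratio per cluster is summed target-cycle over summed buffer-cycle Cy3 intensity, averaged per switch-domain sequence; clusters outside 100-1000 RFU were removed.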
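Note: ATP exposure 15 min at 22 °C before imaging.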

| Sequence | switch fluorescence ratio |
| --- | --- |
| ATTTTGAGTT | 0.982 ± 0.016 |
| ATTTTGCAAG | 0.994 ± 0.018 |
| ATTTTGGAGA | 1.02 ± 0.026 |
| ATTTTGGAGG | 0.9908 ± 0.0057 |
| ATTTTGTCAT | 0.972 ± 0.019 |
| ATTTTGTCCT | 1.08 ± 0.11 |
| ATTTTTAGAA | 1.03 ± 0.013 |
| ATTTTTAGTT | 0.991 ± 0.037 |
| ATTTTTCGGC | 0.99 ± 0.02 |
| ATTTTTCTTT | 0.992 ± 0.012 |
| ATTTTTGATT | 0.984 ± 0.018 |
| ATTTTTGCGC | 1.03 ± 0.055 |
| ATTTTTGGGT | 0.994 ± 0.031 |
| ATTTTTGTTC | 1.0252 ± 0.00061 |
| ATTTTTTAAC | 1.019 ± 0.0096 |
| ATTTTTTAGG | 0.993 ± 0.025 |
| ATTTTTTCAA | 0.981 ± 0.015 |
| ATTTTTTCTG | 0.9907 ± 0.0059 |
| ATTTTTTGCG | 1 ± 0.028 |
| ATTTTTTGGC | 0.996 ± 0.01 |
| ATTTTTTGTA | 0.984 ± 0.026 |
| ATTTTTTTTC | 0.989 ± 0.022 |
| CAAAAAATAC | 2.23 ± 1.7 |

| Sequence | switch fluorescence ratio |
| --- | --- |
| CAAAAAATC | 1.02 ± 0.028 |
| CAAAAAGAGC | 0.976 ± 0.015 |
| CAAAAAGGGA | 1.0178 ± 0.00094 |
| CAAAAAGTTT | 1.05 ± 0.097 |
| CAAAAGACGG | 1.04 ± 0.02 |
| CAAAAGTGAT | 1.01 ± 0.024 |
| CAAAAGTGGT | 1.01 ± 0.018 |
| CAAACGCCCG | 0.9968 ± 0.0073 |
| CAAACGTGTG | 0.991 ± 0.041 |
| CAAACTAGC | 0.99 ± 0.003 |
| CAAAGAGTGG | 1.0063 ± 0.00092 |
| CAAAGATAGG | 0.996 ± 0.018 |
| CAAAGCAAAA | 2.36 ± 2 |
| CAAAGCACCG | 1.031 ± 0.0063 |
| CAAAGCATCA | 1.05 ± 0.029 |
| CAAAGGACCT | 1.136 ± 0.0082 |
| CAAAGGACGG | 1.25 ± 0.38 |
| CAAAGGATAC | 1.2 ± 0.013 |
| CAAAGGGATA | 1 ± 0.054 |
| CAAAGGTCTC | 0.986 ± 0.023 |
| CAAAGTAGGC | 0.958 ± 0.018 |
| CAAAGTGAAC | 1.01 ± 0.017 |
| CAAATAACGG | 1 ± 0.023 |

| Sequence | switch fluorescence ratio |
| --- | --- |
| CAAATAATAG | 0.977 ± 0.033 |
| CAAATAGTCG | 1.01 ± 0.027 |
| CAAATATACT | 1.14 ± 0.13 |
| CAAATGGAAG | 0.998 ± 0.028 |
| CAAATGGGAA | 0.99 ± 0.016 |
| CAAATGGGTC | 1.06 ± 0.046 |
| CAAATGTCGT | 1.008 ± 0.008 |
| CAACACGGTG | 1.08 ± 0.038 |
| CAACAGGGGG | 1.06 ± 0.056 |
| CAACATGGAG | 0.9972 ± 0.0089 |
| CAACCCGGTA | 1.51 ± 0.7 |
| CAACCGAGGC | 1.18 ± 0.028 |
| CAACCGGTTG | 0.984 ± 0.017 |
| CAACCTGGGA | 1.022 ± 0.0017 |
| CAACGGGCGG | 1 ± 0.019 |
| CAACGGTTTC | 1.01 ± 0.019 |
| CAACGTTTTG | 0.977 ± 0.023 |
| CAACTGCACG | 1.22 ± 0.079 |
| CAACTGGCGG | 0.99 ± 0.017 |
| CAACTTGAAG | 0.977 ± 0.02 |
| CAACTTTAGT | 1.031 ± 0.0035 |
| CAAGAAATCT | 1.0078 ± 0.0005 |
| CAAGACGTTG | 0.974 ± 0.012 |

| Sequence | switch fluorescence ratio |
| --- | --- |
| CAAGAGAATG | 0.999 ± 0.037 |
| CAAGAGGGTG | 1.11 ± 0.15 |
| CAAGCGGACT | 1.06 ± 0.049 |
| CAAGCGGTT | 0.9628 ± 0.0056 |
| CAAGCTTAAA | 0.9729 ± 0.009 |
| CAAGCTTAGG | 0.995 ± 0.014 |
| CAAGGAATTT | 0.969 ± 0.023 |
| CAAGGACAGC | 1.05 ± 0.047 |
| CAAGGAGGGA | 1.01 ± 0.049 |
| CAAGGCTGGG | 1.02 ± 0.049 |
| CAAGGGGGAT | 1.01 ± 0.013 |
| CAAGGGGGTG | 1.03 ± 0.03 |
| CAAGGGGTTT | 0.99 ± 0.033 |
| CAAGGTCCGA | 0.99445 ± 0.00086 |
| CAAGGTCGGC | 1 ± 0.04 |
| CAAGGTTTAC | 0.9881 ± 0.00047 |
| CAAGTAAGTT | 0.9884 ± 0.0063 |
| CAAGTATTGT | 0.999 ± 0.025 |
| CAAGTCCATT | 1.01 ± 0.034 |
| CAAGTCCGTT | 1 ± 0.037 |
| CAAGTCTGGG | 0.9879 ± 0.0059 |
| CAAGTGAGGC | 0.987 ± 0.075 |
| CAAGTGGCAT | 1.017 ± 0.0079 |

| Sequence | switch fluorescence ratio |
| --- | --- |
| CAAGTTCGTG | 1.002 ± 0.0089 |
| CAAGTTTATT | 1.001 ± 0.01 |
| CAATAGAAGT | 0.979 ± 0.037 |
| CAATAGGCAG | 0.9824 ± 0.0053 |
| CAATAGTCAG | 1.04 ± 0.015 |
| CAATATATCT | 1.01 ± 0.019 |
| CAATATCCGA | 1 ± 0.026 |
| CAATATTTG | 0.994 ± 0.015 |
| CAATCATGTT | 1.02 ± 0.027 |
| CAATCGACTC | 1.047 ± 0.0037 |
| CAATCTGCGC | 1.07 ± 0.043 |
| CAATCTTGTC | 0.975 ± 0.057 |
| CAATGAACAC | 1.04 ± 0.031 |
| CAATGAGGG | 0.997 ± 0.022 |
| CAATGCGGTA | 0.976 ± 0.046 |
| CAATGGCCGA | 0.9978 ± 0.0068 |
| CAATGGGACG | 1.03 ± 0.098 |
| CAATGGGTAT | 0.978 ± 0.014 |
| CAATGGGTCT | 0.9523 ± 0.0028 |
| CAATGGTTTG | 1 ± 0.018 |
| CAATGTGGCG | 0.922 ± 0.038 |
| CAATGTGGGG | 0.989 ± 0.056 |
| CAATTAACGG | 1.04 ± 0.027 |

| Sequence | switch fluorescence ratio |
| --- | --- |
| CAATTAGGAG | 0.979 ± 0.024 |
| CAATTAGTGA | 1.01 ± 0.028 |
| CAATTCGCTA | 1.21 ± 0.089 |
| CAATTGCGCT | 1.01 ± 0.016 |
| CAATTGGAAC | 0.99578 ± 8.3e-05 |
| CAATTGGACA | 0.982 ± 0.01 |
| CAATTGGGGA | 0.995 ± 0.029 |
| CAATTGTACG | 1 ± 0.011 |
| CAATTGTTCC | 1.04 ± 0.021 |
| CAATTTAGCG | 1.02 ± 0.032 |
| CAATTTAGTG | 1 ± 0.047 |
| CAATTTGATG | 0.979 ± 0.05 |
| CACAAAAATT | 1.01 ± 0.024 |
| CACAAGCACT | 1.28 ± 0.069 |
| CACAAGGCGG | 1.03 ± 0.041 |
| CACAAGGGCC | 1.03 ± 0.018 |
| CACAATAGAT | 1.02 ± 0.022 |
| CACAATTTTT | 0.991 ± 0.025 |
| CACACGGTTC | 1.02 ± 0.028 |
| CACACTGGCA | 0.996 ± 0.05 |
| CACAGCGTCG | 1 ± 0.017 |
| CACAGGGCTG | 1.026 ± 0.0059 |
| CACAGGGGGG | 1.19 ± 0.34 |

| Sequence | switch fluorescence ratio |
| --- | --- |
| CACATAGACG | 1.03 ± 0.046 |
| CACATGACAC | 1.13 ± 0.015 |
| CACATGGTCG | 0.997 ± 0.02 |
| CACATGGTGT | 1.15 ± 0.02 |
| CACCACGGCA | 1.1 ± 0.045 |
| CACCCTTTGT | 0.9912 ± 0.0036 |
| CACCGAAATG | 1.17 ± 0.1 |
| CACCGAGATT | 1.07 ± 0.076 |
| CACCGAGTTA | 1.04 ± 0.032 |
| CACCGGGATG | 1.31 ± 0.099 |
| CACCGGGGTG | 0.995 ± 0.13 |
| CACCGTGTCT | 1.02 ± 0.016 |
| CACCTAGGCT | 1.055 ± 0.0048 |
| CACCTGTTTT | 1.02 ± 0.033 |
| CACGAAGACC | 1.197 ± 0.0068 |
| CACGAAGGAA | 1.07 ± 0.019 |
| CACGCGTGGA | 1.003 ± 0.0055 |
| CACGGATTCA | 0.988 ± 0.043 |
| CACGGCACGA | 1.36 ± 0.073 |
